Measured values from publication PMC3738494, “A Systematic Analysis of Host Factors Reveals a Med23-Interferon-λ Regulatory Axis against Herpes Simplex Virus Type 1 Replication” (PLoS Pathogens, 2013).

Target: T1, Med23, myc-tagged fusion protein expressed in HEK cells (human, UniProt Q9ULK4 1-1368)
T1 sequence (looked up): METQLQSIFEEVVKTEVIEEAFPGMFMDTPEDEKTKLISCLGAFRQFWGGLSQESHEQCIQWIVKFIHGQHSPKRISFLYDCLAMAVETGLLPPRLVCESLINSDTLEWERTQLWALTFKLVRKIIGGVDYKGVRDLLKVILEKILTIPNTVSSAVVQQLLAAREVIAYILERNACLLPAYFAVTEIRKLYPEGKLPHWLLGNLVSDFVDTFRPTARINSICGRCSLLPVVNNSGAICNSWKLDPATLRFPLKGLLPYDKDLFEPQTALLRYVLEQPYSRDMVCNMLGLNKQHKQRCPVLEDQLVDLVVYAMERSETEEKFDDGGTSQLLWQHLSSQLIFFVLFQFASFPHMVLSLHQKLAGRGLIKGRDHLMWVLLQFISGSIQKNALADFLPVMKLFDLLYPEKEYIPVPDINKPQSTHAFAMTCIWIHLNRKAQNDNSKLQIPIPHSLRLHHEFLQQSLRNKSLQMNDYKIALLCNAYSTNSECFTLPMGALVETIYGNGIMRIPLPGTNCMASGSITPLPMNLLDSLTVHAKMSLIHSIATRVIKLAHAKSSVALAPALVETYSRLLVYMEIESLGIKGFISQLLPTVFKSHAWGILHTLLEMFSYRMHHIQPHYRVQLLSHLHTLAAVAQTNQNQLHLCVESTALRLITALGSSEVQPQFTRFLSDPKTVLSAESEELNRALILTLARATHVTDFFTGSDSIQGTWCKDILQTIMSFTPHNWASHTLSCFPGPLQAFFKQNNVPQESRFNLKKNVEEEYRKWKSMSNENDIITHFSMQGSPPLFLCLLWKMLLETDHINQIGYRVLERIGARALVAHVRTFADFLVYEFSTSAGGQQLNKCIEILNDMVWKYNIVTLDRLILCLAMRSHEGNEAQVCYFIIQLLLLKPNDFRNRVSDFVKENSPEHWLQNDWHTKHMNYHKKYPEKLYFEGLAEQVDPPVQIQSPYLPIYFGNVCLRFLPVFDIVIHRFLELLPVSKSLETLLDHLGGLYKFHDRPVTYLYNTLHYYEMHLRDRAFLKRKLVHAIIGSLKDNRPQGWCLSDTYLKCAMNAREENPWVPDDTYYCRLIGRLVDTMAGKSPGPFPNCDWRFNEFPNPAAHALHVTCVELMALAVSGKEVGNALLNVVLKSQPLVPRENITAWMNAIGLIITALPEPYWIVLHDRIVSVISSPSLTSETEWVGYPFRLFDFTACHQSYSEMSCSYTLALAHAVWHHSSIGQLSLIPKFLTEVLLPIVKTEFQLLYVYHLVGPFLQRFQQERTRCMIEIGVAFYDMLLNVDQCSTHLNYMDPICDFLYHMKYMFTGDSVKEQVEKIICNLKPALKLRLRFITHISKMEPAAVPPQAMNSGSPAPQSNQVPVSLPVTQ
Test: cell-based or functional assay

B1: IRF7, HA-tagged, expressed in HEK cells (natural protein, human, UniProt Q92985 1-503, looked up)
chain: MALAPERAAPRVLFGEWLLGEISSGCYEGLQWLDEARTCFRVPWKHFARKDLSEADARIFKAWAVARGRWPPSSRGGGPPPEAETAERAGWKTNFRCALRSTRRFVMLRDNSGDPADPHKVYALSRELCWREGPGTDQTEAEAPAAVPPPQGGPPGPFLAHTHAGLQAPGPLPAPAGDKGDLLLQAVQQSCLADHLLTASWGADPVPTKAPGEGQEGLPLTGACAGGPGLPAGELYGWAVETTPSPGPQPAALTTGEAAAPESPHQAEPYLSPSPSACTAVQEPSPGALDVTIMYKGRTVLQKVVGHPSCTFLYGPPDPAVRATDPQQVAFPSPAELPDQKQLRYTEELLRHVAPGLHLELRGPQLWARRMGKCKVYWEVGGPPGSASPSTPACLLPRNCDTPIFDFRVFFQELVEFRARQRRGSPRYTIYLGFGQDLSAGRPKEKSLVLVKLEPWLCRVHLEGTQREGVSSLDSSSLSLCLSSANSLYDDIECFLMELEQPA
IFN-λ1 promoter luciferase reporter in A549 cells, IRF7 co-expressed with Med23 (IRF7 alone ~9-fold over background): ~18 fold
IFN-λ3 in the supernatant of A549 cells by ELISA, Med23 co-expressed with IRF7 against either alone: > 2 fold
